From the supplement of paper PMC5998384

What was measured:
HeLa Kyoto [1] = test: solubility change mitosis vs G1/S (difference of NP-40 vs SDS log2 ratios) (log2 ratio difference); higher = more soluble in mitosis
HeLa Kyoto [2] = test: solubility in G1/S (NP-40 vs SDS abundance) (log2 ratio); higher = more soluble; conditions: cell cycle stage: G1/S
HeLa Kyoto [3] = test: thermal stability score vs G1/S (z-score of summed log2 fold changes over temperatures); higher = more thermally stable than in G1/S
[4] = cell cycle stage: early G1 (4.5 h after nocodazole release)
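For solubility change mitosis vs G1/S (difference of NP-40 vs SDS log2 ratios) in this document: synchronized HeLa Kyoto cells (double thymidine block for G1/S, nocodazole release for mitosis), protein amounts in NP-40 versus SDS lysates quantified by mass spectrometry, three biological replicates.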
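For solubility in G1/S (NP-40 vs SDS abundance) in this document: HeLa Kyoto cells arrested at G1/S by double thymidine block, proteins quantified by TMT10plex mass spectrometry in mild NP-40 versus SDS extracts, three biological replicates.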
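For thermal stability score vs G1/S (z-score of summed log2 fold changes over temperatures) in this document: synchronized HeLa Kyoto cells, proteins quantified by TMT10plex mass spectrometry, three biological replicates, mitosis taken 0.5 h after nocodazole release, G1/S directly after double thymidine block.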

MSGPLEGADGGGDPRPGESFCPGGVPSPGPPQHRPCPGPSLADDTDANSNGSSGNESNGHESRGASQRSSHSSSSGNGKDSALLETTESSKSTNSQSPSPPSSSIAYSLLSASSEQDNPSTSGCSSEQSARARTQKELMTALRELKLRLPPERRGKGRSGTLATLQYALACVKQVQANQEYYQQWSLEEGEPCSMDMSTYTLEELEHITSEYTLQNQDTFSVAVSFLTGRIVYISEQAAVLLRCKRDVFRGTRFSELLAPQDVGVFYGSTAPSRLPTWGTGASAGSGLRDFTQEKSVFCRIRGGPDRDPGPRYQPFRLTPYVTKIRVSDGAPAQPCCLLIAERIHSGYEAPRIPPDKRIFTTRHTPSCLFQDVDERAAPLLGYLPQDLLGAPVLLFLHPEDRPLMLAIHKKILQLAGQPFDHSPIRFCARNGEYVTMDTSWAGFVHPWSRKVAFVLGRHKVRTAPLNEDVFTPPAPSPAPSLDTDIQELSEQIHRLLLQPVHSPSPTGLCGVGAVTSPGPLHSPGSSSDSNGGDAEGPGPPAPVTFQQICKDVHLVKHQGQQLFIESRARPQSRPRLPATGTFKAKALPCQSPDPELEAGSAPVQAPLALVPEEAERKEASSCSYQQINCLDSILRYLESCNLPSTTKRKCASSSSYTTSSASDDDRQRTGPVSVGTKKDPPSAALSGEGATPRKEPVVGGTLSPLALANKAESVVSVTSQCSFSSTIVHVGDKKPPESDIIMMEDLPGLAPGPAPSPAPSPTVAPDPAPDAYRPVGLTKAVLSLHTQKEEQAFLSRFRDLGRLRGLDSSSTAPSALGERGCHHGPAPPSRRHHCRSKAKRSRHHQNPRAEAPCYVSHPSPVPPSTPWPTPPATTPFPAVVQPYPLPVFSPRGGPQPLPPAPTSVPPAAFPAPLVTPMVALVLPNYLFPTPSSYPYGALQTPAEGPPTPASHSPSPSLPALAPSPPHRPDSPLFNSRCSSPLQLNLLQLEELPRAEGAAVAGGPGSSAGPPPPSAEAAEPEARLAEVTESSNQDALSGSSDLLELLLQEDSRSGTGSAASGSLGSGLGSGSGSGSHEGGSTSASITRSSQSSHTSKYFGSIDSSEAEAGAARGGAEPGDQVIKYVLQDPIWLLMANADQRVMMTYQVPSRDMTSVLKQDRERLRAMQKQQPRFSEDQRRELGAVHSWVRKGQLPRALDVMACVDCGSSTQDPGHPDDPLFSELDGLGLEPMEEGGGEQGSSGGGSGEGEGCEEAQGGAKASSSQDLAMEEEEEGRSSSSPALPTAGNCTS [PER1]
solubility change mitosis (log2) (HeLa Kyoto [1]): -0.183 | solubility in G1/S (log2) (HeLa Kyoto [2]): 0.0364 | thermal stability score (HeLa Kyoto [3]; [4]): 0.55 | thermal stability score (HeLa Kyoto [3]; cell cycle stage: mitosis): 0.377

MSKISEAVKRARAAFSSGRTRPLQFRIQQLEALQRLIQEQEQELVGALAADLHKNEWNAYYEEVVYVLEEIEYMIQKLPEWAADEPVEKTPQTQQDELYIHSEPLGVVLVIGTWNYPFNLTIQPMVGAIAAGNSVVLKPSELSENMASLLATIIPQYLDKDLYPVINGGVPETTELLKERFDHILYTGSTGVGKIIMTAAAKHLTPVTLELGGKSPCYVDKNCDLDVACRRIAWGKFMNSGQTCVAPDYILCDPSIQNQIVEKLKKSLKEFYGEDAKKSRDYGRIISARHFQRVMGLIEGQKVAYGGTGDAATRYIAPTILTDVDPQSPVMQEEIFGPVLPIVCVRSLEEAIQFINQREKPLALYMFSSNDKVIKKMIAETSSGGVAANDVIVHITLHSLPFGGVGNSGMGSYHGKKSFETFSHRRSCLVRPLMNDEGLKVRYPPSPAKMTQH [ALDH3A1]
solubility change mitosis (log2) (HeLa Kyoto [1]): -0.153 | solubility in G1/S (log2) (HeLa Kyoto [2]): 0.316 | thermal stability score (HeLa Kyoto [3]; [4]): 0.258 | thermal stability score (HeLa Kyoto [3]; cell cycle stage: mitosis): -0.475

MSRPVRNRKVVDYSQFQESDDADEDYGRDSGPPTKKIRSSPREAKNKRRSGKNSQEDSEDSEDKDVKTKKDDSHSAEDSEDEKEDHKNVRQQRQAASKAASKQREMLMEDVGSEEEQEEEDEAPFQEKDSGSDEDFLMEDDDDSDYGSSKKKNKKMVKKSKPERKEKKMPKPRLKATVTPSPVKGKGKVGRPTASKASKEKTPSPKEEDEEPESPPEKKTSTSPPPEKSGDEGSEDEAPSGED [NUCKS1]
solubility change mitosis (log2) (HeLa Kyoto [1]): 0.307 | solubility in G1/S (log2) (HeLa Kyoto [2]): 0.444 | thermal stability score (HeLa Kyoto [3]; [4]): -0.14 | thermal stability score (HeLa Kyoto [3]; cell cycle stage: mitosis): 1.15

MSSILPFTPPIVKRLLGWKKGEQNGQEEKWCEKAVKSLVKKLKKTGQLDELEKAITTQNVNTKCITIPRSLDGRLQVSHRKGLPHVIYCRLWRWPDLHSHHELRAMELCEFAFNMKKDEVCVNPYHYQRVETPVLPPVLVPRHTEIPAEFPPLDDYSHSIPENTNFPAGIEPQSNIPETPPPGYLSEDGETSDHQMNHSMDAGSPNLSPNPMSPAHNNLDLQPVTYCEPAFWCSISYYELNQRVGETFHASQPSMTVDGFTDPSNSERFCLGLLSNVNRNAAVELTRRHIGRGVRLYYIGGEVFAECLSDSAIFVQSPNCNQRYGWHPATVCKIPPGCNLKIFNNQEFAALLAQSVNQGFEAVYQLTRMCTIRMSFVKGWGAEYRRQTVTSTPCWIELHLNGPLQWLDKVLTQMGSPSIRCSSVS [SMAD3]
solubility change mitosis (log2) (HeLa Kyoto [1]): 0.0397 | solubility in G1/S (log2) (HeLa Kyoto [2]): -0.184 | thermal stability score (HeLa Kyoto [3]; [4]): -0.574 | thermal stability score (HeLa Kyoto [3]; cell cycle stage: mitosis): -1.15

MSSMWSEYTIGGVKIYFPYKAYPSQLAMMNSILRGLNSKQHCLLESPTGSGKSLALLCSALAWQQSLSGKPADEGVSEKAEVQLSCCCACHSKDFTNNDMNQGTSRHFNYPSTPPSERNGTSSTCQDSPEKTTLAAKLSAKKQASIYRDENDDFQVEKKRIRPLETTQQIRKRHCFGTEVHNLDAKVDSGKTVKLNSPLEKINSFSPQKPPGHCSRCCCSTKQGNSQESSNTIKKDHTGKSKIPKIYFGTRTHKQIAQITRELRRTAYSGVPMTILSSRDHTCVHPEVVGNFNRNEKCMELLDGKNGKSCYFYHGVHKISDQHTLQTFQGMCKAWDIEELVSLGKKLKACPYYTARELIQDADIIFCPYNYLLDAQIRESMDLNLKEQVVILDEAHNIEDCARESASYSVTEVQLRFARDELDSMVNNNIRKKDHEPLRAVCCSLINWLEANAEYLVERDYESACKIWSGNEMLLTLHKMGITTATFPILQGHFSAVLQKEEKISPIYGKEEAREVPVISASTQIMLKGLFMVLDYLFRQNSRFADDYKIAIQQTYSWTNQIDISDKNGLLVLPKNKKRSRQKTAVHVLNFWCLNPAVAFSDINGKVQTIVLTSGTLSPMKSFSSELGVTFTIQLEANHIIKNSQVWVGTIGSGPKGRNLCATFQNTETFEFQDEVGALLLSVCQTVSQGILCFLPSYKLLEKLKERWLSTGLWHNLELVKTVIVEPQGGEKTNFDELLQVYYDAIKYKGEKDGALLVAVCRGKVSEGLDFSDDNARAVITIGIPFPNVKDLQVELKRQYNDHHSKLRGLLPGRQWYEIQAYRALNQALGRCIRHRNDWGALILVDDRFRNNPSRYISGLSKWVRQQIQHHSTFESALESLAEFSKKHQKVLNVSIKDRTNIQDNESTLEVTSLKYSTSPYLLEAASHLSPENFVEDEAKICVQELQCPKIITKNSPLPSSIISRKEKNDPVFLEEAGKAEKIVISRSTSPTFNKQTKRVSWSSFNSLGQYFTGKIPKATPELGSSENSASSPPRFKTEKMESKTVLPFTDKCESSNLTVNTSFGSCPQSETIISSLKIDATLTRKNHSEHPLCSEEALDPDIELSLVSEEDKQSTSNRDFETEAEDESIYFTPELYDPEDTDEEKNDLAETDRGNRLANNSDCILAKDLFEIRTIKEVDSAREVKAEDCIDTKLNGILHIEESKIDDIDGNVKTTWINELELGKTHEIEIKNFKPSPSKNKGMFPGFK [BRIP1]
solubility change mitosis (log2) (HeLa Kyoto [1]): -0.00076 | solubility in G1/S (log2) (HeLa Kyoto [2]): -0.0862 | thermal stability score (HeLa Kyoto [3]; [4]): 0.36 | thermal stability score (HeLa Kyoto [3]; cell cycle stage: mitosis): 1.88

MSYYQRPFSPSAYSLPASLNSSIVMQHGTSLDSTDTYPQHAQSLDGTTSSSIPLYRSSEEEKRVTVIKAPHYPGIGPVDESGIPTAIRTTVDRPKDWYKTMFKQIHMVHKPDDDTDMYNTPYTYNAGLYNPPYSAQSHPAAKTQTYRPLSKSHSDNSPNAFKDASSPVPPPHVPPPVPPLRPRDRSSTEKHDWDPPDRKVDTRKFRSEPRSIFEYEPGKSSILQHERPASLYQSSIDRSLERPMSSASMASDFRKRRKSEPAVGPPRGLGDQSASRTSPGRVDLPGSSTTLTKSFTSSSPSSPSRAKGGDDSKICPSLCSYSGLNGNPSSELDYCSTYRQHLDVPRDSPRAISFKNGWQMARQNAEIWSSTEETVSPKIKSRSCDDLLNDDCDSFPDPKVKSESMGSLLCEEDSKESCPMAWGSPYVPEVRSNGRSRIRHRSARNAPGFLKMYKKMHRINRKDLMNSEVICSVKSRILQYESEQQHKDLLRAWSQCSTEEVPRDMVPTRISEFEKLIQKSKSMPNLGDDMLSPVTLEPPQNGLCPKRRFSIEYLLEEENQSGPPARGRRGCQSNALVPIHIEVTSDEQPRAHVEFSDSDQDGVVSDHSDYIHLEGSSFCSESDFDHFSFTSSESFYGSSHHHHHHHHHHHRHLISSCKGRCPASYTRFTTMLKHERARHENTEEPRRQEMDPGLSKLAFLVSPVPFRRKKNSAPKKQTEKAKCKASVFEALDSALKDICDQIKAEKKRGSLPDNSILHRLISELLPDVPERNSSLRALRRSPLHQPLHPLPPDGAIHCPPYQNDCGRMPRSASFQDVDTANSSCHHQDRGGALQDRESPRSYSSTLTDMGRSAPRERRGTPEKEKLPAKAVYDFKAQTSKELSFKKGDTVYILRKIDQNWYEGEHHGRVGIFPISYVEKLTPPEKAQPARPPPPAQPGEIGEAIAKYNFNADTNVELSLRKGDRVILLKRVDQNWYEGKIPGTNRQGIFPVSYVEVVKKNTKGAEDYPDPPIPHSYSSDRIHSLSSNKPQRPVFTHENIQGGGEPFQALYNYTPRNEDELELRESDVIDVMEKCDDGWFVGTSRRTKFFGTFPGNYVKRL [SORBS2]
solubility change mitosis (log2) (HeLa Kyoto [1]): 0.819 | solubility in G1/S (log2) (HeLa Kyoto [2]): -0.773 | thermal stability score (HeLa Kyoto [3]; [4]): -2.13 | thermal stability score (HeLa Kyoto [3]; cell cycle stage: mitosis): 0.899

MTSAAEIKKPPVAPKPKFVVANNKPAPPPIAPKPDIVISSVPQSTKKMKPAIAPKPKVLKTSPVREIGQSPSRKIMLNLEGHKQELAESTDNFNCKYEGNQSNDYISPMCSCSSECIHKLGHRENLCVKQLVLEPLEMNENLENSKIDETLTIKTRSKCDLYGEKAKNQGGVVLKASVLEEELKDALIHQMPPFISAQKHRPTDSPEMNGGCNSNGQFRIEFADLSPSPSSFEKVPDHHSCHLQLPSDECEHFETCQDDSEKSNNCFQSSELEALENGKRSTLISSDGVSKKSEVKDLGPLEIHLVPYTPKFPTPKPRKTRTARLLRQKCVDTPSESTEEPGNSDSSSSCLTENSLKINKISVLHQNVLCKQEQVDKMKLGNKSELNMESNSDAQDLVNSQKAMCNETTSFEKMAPSFDKDSNLSSDSTTVDGSSMSLAVDEGTGFIRCTVSMSLPKQLKLTCNEHLQSGRNLGVSAPQMQKESVIKEENSLRIVPKKPQRHSLPATGVLKKAASEELLEKSSYPSSEEKSSEKSLERNHLQHLCAQNRGVSSSFDMPKRASEKPVWKLPHPILPFSGNPEFLKSVTVSSNSEPSTALTKPRAKSLSAMDVEKCTKPCKDSTKKNSFKKLLSMKLSICFMKSDFQKFWSKSSQLGDTTTGHLSSGEQKGIESDWQGLLVGEEKRSKPIKAYSTENYSLESQKKRKKSRGQTSAANGLRAESLDDQMLSRESSSQAPYKSVTSLCAPEYENIRHYEEIPEYENLPFIMAIRKTQELEWQNSSSMEDADANVYEVEEPYEAPDGQLQLGPRHQHSSSGASQEEQNDLGLGDLPSDEEEIINSSDEDDVSSESSKGEPDPLEDKQDEDNGMKSKVHHIAKEIMSSEKVFVDVLKLLHIDFRDAVAHASRQLGKPVIEDRILNQILYYLPQLYELNRDLLKELEERMLHWTEQQRIADIFVKKGPYLKMYSTYIKEFDKNIALLDEQCKKNPGFAAVVREFEMSPRCANLALKHYLLKPVQRIPQYRLLLTDYLKNLIEDAGDYRDTQDALAVVIEVANHANDTMKQGDNFQKLMQIQYSLNGHHEIVQPGRVFLKEGILMKLSRKVMQPRMFFLFNDALLYTTPVQSGMYKLNNMLSLAGMKVRKPTQEAYQNELKIESVERSFILSASSATERDEWLEAISRAIEEYAKKRITFCPSRSLDEADSENKEEVSPLGSKAPIWIPDTRATMCMICTSEFTLTWRRHHCRACGKIVCQACSSNKYGLDYLKNQPARVCEHCFQELQKLDHQHSPRIGSPGNHKSPSSALSSVLHSIPSGRKQKKIPAALKEVSANTEDSSMSGYLYRSKGNKKPWKHFWFVIKNKVLYTYAASEDVAALESQPLLGFTVIQVKDENSESKVFQLLHKNMLFYVFKAEDAHSAQKWIEAFQEGTIL [FGD6]
solubility change mitosis (log2) (HeLa Kyoto [1]): 0.03 | solubility in G1/S (log2) (HeLa Kyoto [2]): -0.0552 | thermal stability score (HeLa Kyoto [3]; [4]): -0.173 | thermal stability score (HeLa Kyoto [3]; cell cycle stage: mitosis): 0.213
